For the series the following is noted: Escherichia coli (strain K12), pH 7, 25 °C, GdnHCl, CD, Tris-HCl 20 mM, reversible: yes, whole UniProt chain shown.

Values joined by “and” are separate entries in the source; they are usually repeats but may differ in a detail not shown here. Equal values may be shown once.

B1: Tryptophan synthase alpha chain wild type, P0A877 (protein)
chain: MERYESLFAQLKERKEGAFVPFVTLGDPGIEQSLKIIDTLIEAGADALELGIPFSDPLADGPTIQNATLRAFAAGVTPAQCFEMLALIRQKHPTIPIGLLMYANLVFNKGIDEFYAQCEKVGVDSVLVADVPVEESAPFRQAALRHNVAPIFICPPNADDDLLRQIASYGRGYTYLLSRAGVTGAENRAALPLNHLVAKLKEYNAAPPLQGFGISAPDQVKAAIDAGAAGAISGSAIVKIIEQHINEPEKMLAALKVFVQPMKAATRS
For B1, the unfolding free energy was 8.21 kcal/mol. Further, the unfolding free energy (transition: 3) was 4.23 kcal/mol and 4 kcal/mol.

These data come from FireProtDB (doi:10.1021/bi961660c).
